Tests used:
[1] = molecular target: T1, PD-1 expressed on the cell surface (human, UniProt Q15116 21-288); assay: cell-based competition (FACS): blocked ligand PD-L1-PE binding to NSO-PD-1 cells, MFI
T1 construct: also called NSO cells expressing PD-1; NSO-PD-1 cells

[2] = molecular target: T1, PD-1 expressed on the cell surface; assay: cell-based competition (FACS): blocked ligand PD-L2-PE binding to NSO-PD-1 cells, MFI
[3] = molecular target: T2, His-tagged soluble cynomolgus monkey CTLA-4 (cynomolgus monkey); assay: BIACORE, His-tagged soluble cyno CTLA-4 captured on anti-PentaHis, binder passed over at 12.5-200 nM; affinity by 1:1 Langmuir binding model
T2 construct: extracellular domain; also called Cyno CTLA-4
Experimental: Briefly, His-tagged soluble CTLA-4 (an extracellular portion of human or cynomolgus monkey CTLA-4 fused to a histidine-containing peptide) was captured on immobilized anti-PentaHis and then different concentrations (12.5-200 nM) of the CTLA-4 binding molecules were passed over the immobilized CTLA-4 proteins. The kinetics of binding were determined via BIACORE® analysis (affinity by 1:1 Langmuir binding model (simultaneous ka/kd); or avidity by separate ka/kd 1:1 fit).

hPD-1-His [4] = molecular target: T3, hPD-1-His (human, UniProt Q15116 25-170, limits assumed); assay: competition ELISA: plate coated with shPD-1 and shCTLA-4 1:1 (2 ug/ml each); blocked ligand biotin-labeled PD-L1 6 ug/ml, streptavidin-HRP, RLU
T3 construct: also called His-tagged soluble human PD-1; shPD-1
Experimental: (§1) A series of ELISA assays were conducted to evaluate the ability of bispecific molecules of the invention to block ligand binding to PD-1 and […], alone and in combination. […] Plates were coated with a 1:1 mix of His-tagged soluble human PD-1 (shPD-1) and a His-tagged irrelevant antigen (irrAg) (2 μg/ml each), or a 1:1 mix of shPD-1 and a His-tagged soluble human CTLA-4 (shCTLA-4) (2 μg/ml each).

[5] = molecular target: T4, His-tagged soluble human CTLA-4 (human, UniProt P16410 36-161); assay: competition ELISA: plate coated with shCTLA-4 and shPD-1 1:1 (2 ug/ml each); blocked ligand biotin-labeled B7-1 0.2 ug/ml, streptavidin-HRP, RLU
T4 construct: also called shCTLA-4
T4 sequence: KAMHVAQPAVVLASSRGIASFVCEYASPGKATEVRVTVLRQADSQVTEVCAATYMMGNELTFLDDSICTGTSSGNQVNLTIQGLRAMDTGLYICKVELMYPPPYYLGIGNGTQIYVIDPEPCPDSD
Experimental: (§2) Plates were coated with a 1:1 mix of shCTLA-4 and irrAg (2 μg/ml each), a 1:1 mix of shCTLA-4 shPD-1 (2 μg/ml each), or a 1:4 mix of shCTLA-4 (0.8 μg/ml) and shPD-1 (3.2 μg/ml).

[6] = molecular target: T4, His-tagged soluble human CTLA-4; assay: competition ELISA: plate coated with shCTLA-4 0.8 ug/ml and shPD-1 3.2 ug/ml (1:4); blocked ligand biotin-labeled B7-1 0.2 ug/ml, streptavidin-HRP, RLU
Experimental: as §2

hPD-1-His [7] = molecular target: T3, hPD-1-His; assay: competition ELISA: plate coated with shPD-1 and irrelevant antigen 1:1 (2 ug/ml each); blocked ligand biotin-labeled PD-L1 6 ug/ml, streptavidin-HRP, RLU
Experimental: as §1

hPD-1-His [8] = molecular target: T3, hPD-1-His; assay: ELISA, hPD-1-His (1 ug/mL) coated, goat anti-human-Fc-HRP detection
Text: FIGS. 8A-8D show the results of ELISA studies measuring the binding of serially diluted binding molecules to human CTLA-4 and human PD-1. […] Goat anti-human-Fc-HRP (1:10,000) was employed as the secondary detection molecule to detect binding. FIGS. 8C-8D show the results of a study on the effect of altering orientations and binding domains on binding. […] Goat anti-human-Fcγ-HRP was employed as the secondary detection molecule to detect binding using PICO chemiluminescent substrate.
Goat anti-human-Fc-HRP (1:10,000) was employed as the secondary detection molecule to detect binding.

[9] = molecular target: T5, human CTLA-4 expressed on the cell surface (human, UniProt P16410 36-223); assay: flow cytometry (FACS) on Jurkat cells expressing huCTLA-4 but not PD-1, anti-human Fc secondary antibody, MFI
T5 construct: also called huCTLA-4; CHO cells expressing human CTLA-4
T5 sequence: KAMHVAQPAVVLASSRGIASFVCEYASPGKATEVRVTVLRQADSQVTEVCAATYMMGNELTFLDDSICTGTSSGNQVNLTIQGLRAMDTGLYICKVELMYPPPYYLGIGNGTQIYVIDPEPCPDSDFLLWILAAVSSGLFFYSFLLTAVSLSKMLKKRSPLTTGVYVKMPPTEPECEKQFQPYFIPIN
Text: Binding of the DART and TRIDENT molecules to human CTLA-4 was detected using anti-human FC secondary Ab (FACS).

hPD-1-His [10] = molecular target: T3, hPD-1-His; assay: BIACORE, binder captured on F(ab)2 goat anti-human Fc, His-tagged soluble human PD-1 passed over at 6.25-100 nM; Langmuir 1:1 fit

B1: TRIDENT A (bispecific antibody, human IgG4 S228P, kappa)
chain 1: EIVLTQSPATLSLSPGERATLSCRASESVDNYGMSFMNWFQQKPGQPPKLLIHAASNQGSGVPSRFSGSGSGTDFTLTISSLEPEDFAVYFCQQSKEVPYTFGGGTKVEIKGGGSGGGGQVQLVQSGAEVKKPGASVKVSCKASGYSFTSYWMNWVRQAPGQGLEWIGVIHPSDSETWLDQKFKDRVTITVDKSTSTAYMELSSLRSEDTAVYYCAREHYGTSPFAYWGQGTLVTVSSGGCGGGEVAACEKEVAALEKEVAALEKEVAALEKESKYGPPCPPCPAPEFLGGPSVFLFPPKPKDTLYITREPEVTCVVVDVSQEDPEVQFNWYVDGVEVHNAKTKPREEQFNSTYRVVSVLTVLHQDWLNGKEYKCKVSNKGLPSSIEKTISKAKGQPREPQVYTLPPSQEEMTKNQVSLWCLVKGFYPSDIAVEWESNGQPENNYKTTPPVLDSDGSFFLYSRLTVDKSRWQEGNVFSCSVMHEALHNHYTQKSLSLSLG
chain 2: EIVLTQSPATLSLSPGERATLSCRASESVDNYGMSFMNWFQQKPGQPPKLLIHAASNQGSGVPSRFSGSGSGTDFTLTISSLEPEDFAVYFCQQSKEVPYTFGGGTKVEIKGGGSGGGGQVQLVQSGAEVKKPGASVKVSCKASGYSFTSYWMNWVRQAPGQGLEWIGVIHPSDSETWLDQKFKDRVTITVDKSTSTAYMELSSLRSEDTAVYYCAREHYGTSPFAYWGQGTLVTVSSGGCGGGKVAACKEKVAALKEKVAALKEKVAALKE
chain 3: QVQLVESGGGVVQPGRSLRLSCAASGFTFSSYTMHWVRQAPGKGLEWVTFISYDGSNKHYADSVKGRFTVSRDNSKNTLYLQMNSLRAEDTAIYYCARTGWLGPFDYWGQGTLVTVSSASTKGPSVFPLAPCSRSTSESTAALGCLVKDYFPEPVTVSWNSGALTSGVHTFPAVLQSSGLYSLSSVVTVPSSSLGTKTYTCNVDHKPSNTKVDKRVESKYGPPCPPCPAPEFLGGPSVFLFPPKPKDTLYITREPEVTCVVVDVSQEDPEVQFNWYVDGVEVHNAKTKPREEQFNSTYRVVSVLTVLHQDWLNGKEYKCKVSNKGLPSSIEKTISKAKGQPREPQVYTLPPSQEEMTKNQVSLSCAVKGFYPSDIAVEWESNGQPENNYKTTPPVLDSDGSFFLVSRLTVDKSRWQEGNVFSCSVMHEALHNRYTQKSLSLSLG
chain 4: not shown
notes: Four-chain trivalent molecule: two PD-1 sites (PD-1 mAb 6-ISQ, diabody type), one CTLA-4 site (CTLA-4 mAb 3, Fab type), knob/hole IgG4 (YTE)
Question: For B1, which “IC50 (read off the curve)” value [1] is on record?
Answer: Its value is ~0.8 nM.

Question: What about the “IC50 (read off the curve)” value [2] of the same binder?
Answer: The value was ~1 nM.

Question: What about the Kd [3] of the same binder?
Answer: Its Kd is 260 nM.

Question: What about the “IC50 (read off the curve)” value (hPD-1-His [4]) of the same binder?
Answer: The value was ~1 nM.

Question: What about the “IC50 (read off the curve)” value [5] of the same binder?
Answer: Its value is ~10 nM.

Question: What about the “IC50 (read off the curve)” value [6] of the same binder?
Answer: The value was ~3 nM.

Question: And the “IC50 (read off the curve)” value (hPD-1-His [7])?
Answer: The value was ~1 nM.

B2: PD-1 mAb 6 G4P (antibody, human IgG4 S228P, kappa, V domains shown)
VH: QVQLVQSGAEVKKPGASVKVSCKASGYSFTSYWMNWVRQAPGQGLEWIGVIHPSDSETWLDQKFKDRVTITVDKSTSTAYMELSSLRSEDTAVYYCAREHYGTSPFAYWGQGTLVTVSS
VL: EIVLTQSPATLSLSPGERATLSCRASESVDNYGMSFMNWFQQKPGQPPKLLIHAASNQGSGVPSRFSGSGSGTDFTLTISSLEPEDFAVYFCQQSKEVPYTFGGGTKVEIKR
notes: IgG4 with stabilized hinge, kappa; VH/VL of PD-1 mAb 6-ISQ; also called the PD-1 antibody; parental anti-PD-1 antibody
Question: What does the source list for B2?
Answer: EC50 (hPD-1-His [8]): 0.3 nM; IC50 (read off the curve) [1]: ~0.5 nM; IC50 (read off the curve) [2]: ~0.5 nM; binding result [9]: no binding (tested: about 100 nM); Kd (hPD-1-His [10]): 1.1 nM; IC50 (read off the curve) (hPD-1-His [4]): ~0.7 nM; IC50 (read off the curve) (hPD-1-His [7]): ~0.8 nM

From patent US20210130470A1 (MacroGenics, published 2021)
